These results are taken from patent US20250313633A1.

Test [1] deals with cynomolgus monkey B7H3 on transfected FlpinCHO cells (W3XX088-FlpinCHO.cProl.pool) (cynomolgus monkey). Kind of test: FACS on cynomolgus monkey B7H3-transfected FlpinCHO cell pool; negative control.
Test [2] has as its target human full-length B7H3 on MCF-7 cells (human) (UniProt Q5ZPR3). The test can be described thus: cell-based or functional assay.
Test [3] shares this target. The test can be described thus: FACS on MCF-7 cells; negative control.

Sequence of human full-length B7H3 on MCF-7 cells (human) (Q5ZPR3 29-534): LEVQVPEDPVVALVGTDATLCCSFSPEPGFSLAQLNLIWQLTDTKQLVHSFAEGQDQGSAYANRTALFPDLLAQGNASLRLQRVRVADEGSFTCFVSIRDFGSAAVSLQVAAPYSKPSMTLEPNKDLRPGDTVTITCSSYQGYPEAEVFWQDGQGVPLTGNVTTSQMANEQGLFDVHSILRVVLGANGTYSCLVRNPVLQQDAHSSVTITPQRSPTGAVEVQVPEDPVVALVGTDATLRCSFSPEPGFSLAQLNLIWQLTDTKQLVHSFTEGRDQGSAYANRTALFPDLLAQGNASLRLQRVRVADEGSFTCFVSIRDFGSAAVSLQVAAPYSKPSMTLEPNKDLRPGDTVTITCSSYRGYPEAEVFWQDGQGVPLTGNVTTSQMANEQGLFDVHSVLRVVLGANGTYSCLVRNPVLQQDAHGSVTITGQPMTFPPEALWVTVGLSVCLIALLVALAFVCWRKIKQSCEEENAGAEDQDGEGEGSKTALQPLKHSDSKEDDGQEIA

In the case of Human IgG1 isotype antibody, the Max MFI in test [1] is 6.67 MFI; in test [3] it was 47.8 MFI. In test [2], this substance showed an Internalization on MCF-7, Max MFI of 21 MFI.
